Test results from patent publication US20050164345A1, “Synthesis of human procollagens and collagens in recombinant DNA systems” (priority 1992, published 2005).
Read-outs that look alike come from different tables or passages of the source.

B1: proα1 chains of type III procollagen: type III procollagen expressed in insect cells without recombinant prolyl 4-hydroxylase (protein, UniProt P02461 24-1466, looked up)
pro-form: QQEAVEGGCSHLGQSYADRDVWKPEPCQICVCDSGSVLCDDIICDDQELDCPNPEIPFGECCAVCPQPPTAPTRPPNGQGPQGPKGDPGPPGIPGRNGDPGIPGQPGSPGSPGPPGICESCPTGPQNYSPQYDSYDVKSGVAVGGLAGYPGPAGPPGPPGPPGTSGHPGSPGSPGYQGPPGEPGQAGPSGPPGPPGAIGPSGPAGKDGESGRPGRPGERGLPGPPGIKGPAGIPGFPGMKGHRGFDGRNGEKGETGAPGLKGENGLPGENGAPGPMGPRGAPGERGRPGLPGAAGARGNDGARGSDGQPGPPGPPGTAGFPGSPGAKGEVGPAGSPGSNGAPGQRGEPGPQGHAGAQGPPGPPGINGSPGGKGEMGPAGIPGAPGLMGARGPPGPAGANGAPGLRGGAGEPGKNGAKGEPGPRGERGEAGIPGVPGAKGEDGKDGSPGEPGANGLPGAAGERGAPGFRGPAGPNGIPGEKGPAGERGAPGPAGPRGAAGEPGRDGVPGGPGMRGMPGSPGGPGSDGKPGPPGSQGESGRPGPPGPSGPRGQPGVMGFPGPKGNDGAPGKNGERGGPGGPGPQGPPGKNGETGPQGPPGPTGPGGDKGDTGPPGPQGLQGLPGTGGPPGENGKPGEPGPKGDAGAPGAPGGKGDAGAPGERGPPGLAGAPGLRGGAGPPGPEGGKGAAGPPGPPGAAGTPGLQGMPGERGGLGSPGPKGDKGEPGGPGADGVPGKDGPRGPTGPIGPPGPAGQPGDKGEGGAPGLPGIAGPRGSPGERGETGPPGPAGFPGAPGQNGEPGGKGERGAPGEKGEGGPPGVAGPPGGSGPAGPPGPQGVKGERGSPGGPGAAGFPGARGLPGPPGSNGNPGPPGPSGSPGKDGPPGPAGNTGAPGSPGVSGPKGDAGQPGEKGSPGAQGPPGAPGPLGIAGITGARGLAGPPGMPGPRGSPGPQGVKGESGKPGANGLSGERGPPGPQGLPGLAGTAGEPGRDGNPGSDGLPGRDGSPGGKGDRGENGSPGAPGAPGHPGPPGPVGPAGKSGDRGESGPAGPAGAPGPAGSRGAPGPQGPRGDKGETGERGAAGIKGHRGFPGNPGAPGSPGPAGQQGAIGSPGPAGPRGPVGPSGPPGKDGTSGHPGPIGPPGPRGNRGERGSEGSPGHPGQPGPPGPPGAPGPCCGGVGAAAIAGIGGEKAGGFAPYYGDEPMDFKINTDEIMTSLKSVNGQIESLISPDGSRKNPARNCRDLKFCHPELKSGEYWVDPNQGCKLDAIKVFCNMETGETCISANPLNVPRKHWWTDSSAEKKHVWFGESMDGGFQFSYGNPELPEDVLDVHLAFLRLLSSRASQNITYHCKNSIAYMDQASGNVKKALKLMGSNEGEFKAEGNSKFTYTVLEDGCTKHTGEWSKTVFEYRTRKAVRLPIVDIAPYDIGGPDQEFGVDVGPVCFL
modifications: pro-form
notes: type III procollagen expressed in insect cells without recombinant prolyl 4-hydroxylase

What was measured:
[1] = protease digestion and thermal stability of recombinant type II human collagen from insect cells; type: physicochemical; details: expressed in recombinant insect cells
Description: Purification and analysis of Collagen Types I and II. Collagens types I and II were purified as described supra.
The thermal stability of the recombinant type II human collagen expressed from the recombinant insect cells was measured and compared with native type I human collagen. […] The Tm of the recombinant type II collagen was up to about 40° C.

[2] = CD spectrum analysis of purified recombinant type III collagen; type: physicochemical
Description: Type III procollagen was expressed in High Five cells cultured either as monolayers or in suspension in shaker flasks. The cells were harvested 72 h after infection, homogenized in a buffer containing 0.1% Triton X-100 and centrifuged, and the supernatant of the cell homogenate was passed through a DEAE cellulose column to remove nucleic acids. The flow through fractions containing the type III procollagen were pooled and digested with pepsin. This converted the type III procollagen to type III collagen and digested most of the noncollagenous proteins. The type III collagen was then concentrated by salt precipitation, solubilized and treated with pepsin as above. The type III collagen was finally separated from pepsin and other remaining contaminants by gel filtration on a Sephacryl S 500-HR column. The fractions containing the type III collagen were pooled, dialyzed and lyophilized. The purified type III collagen was analyzed by 5% SDS-PAGE under reducing (FIG. 9, lane 2) and nonreducing (FIG. 9, lane 3) conditions. […] Amino acid and CD spectrum analysis were performed on the purified type III collagen. The amino acid composition of the recombinant type III obtained corresponded well with the amino acid composition reported for human type III collagen. […] The melting temperature of the recombinant type III collagen determined by CD spectrum analysis was 40° C.

[3] = thermal stability of type III collagen produced in insect cells, trypsin/chymotrypsin digestion after heating to various temperatures; type: physicochemical
Description: Other aliquots were studied by a radioimmuno-assay for the trimeric N-propeptide of human type III procollagen (Farmos Diagnostica) and a colorimetric method for 4-hydroxyproline (Kivirikko et al., Anal. Biochem. 19: 249-255 (1967)). Still further aliquots were digested with pepsin for 1 h at 22° C. (Bruckner et al., Anal. Biochem. 110: 360-368 (1981)), and the thermal stability of the pepsin-resistant recombinant type III collagen was measured by rapid digestion with a mixture of trypsin and chymotrypsin.
The thermal stability of the type III collagen expressed under different cell culture conditions was studied by using digestion with a mixture of trypsin and chymotrypsin after heating to various temperatures (Bruckner, et al., Anal. Biochem. 110: 360-368 (1981)). High Five cells were infected with viruses coding for the proα1 (III) chains and the a and β subunits of human prolyl 4-hydroxylase. The cells were harvested 72 h after infection, homogenized in a buffer containing 0.2% Triton X-100 and centrifuged. In these experiments, ascorbate was either added daily to the cell culture medium as usual or omitted during the infection. The Triton X-100 soluble proteins were first digested with pepsin for 1 h at 22° C. to convert type III procollagen to type III collagen (Pihlajaniemi et al., EMBO J. 6: 643-649 (1987)), and the trypsin/chymotrypsin digestion was then performed for aliquots of the pepsin-treated samples. The samples were then electrophoresed on 8% SDS-PAGE and analyzed by Coomassie staining. FIG. 11 provides the results of this thermal stability for a variety of collagen products. As set forth in panel A, the cells were infected only with the virus coding for the proα1 (III) chains, and ascorbate was omitted from the culture medium; panel B, the cells were infected only with the virus coding for the proα1 (III) chains, and ascorbate was present in the culture medium as usually; panel C, the cells were coinfected with viruses coding for the proα1 (III) chains, and the α and β subunits of prolyl 4-hydroxylase, but ascorbate was omitted from the culture medium; and panel D, the cells were infected with the three viruses, and ascorbate was present in the culture medium. […] The arrows show the position of the α1 (III) chains. […] (FIG. 11A). […] In contrast, when the proα1 (III) chains were produced in the presence of both prolyl 4-hydroxylase and ascorbate, the Tm of type III collagen was increased considerably, being at about 38-40° C. (FIG. 11D).

prolyl 4-hydroxylase = experiment: Km values of prolyl 4-hydroxylase, assay based on decarboxylation of 2-oxo[1-14C]glutarate; type: biochemical, human; details: other substrates held constant
Description: When the time course of protein expression was examined, Sf9 cells infected with recombinant viruses were labeled with [^35S]methionine (10 μCi/μl; Amersham; 1 Ci=[…]) for 2 hours at various time points between 24 and 50 hours after infection and collected for analysis by SDS/10% PAGE. To determine the maximal accumulation of recombinant protein, cells were harvested at various times from 24 to 96 hours after infection and analyzed on by SDS/10% PAGE. Both the 0.1% Triton X-100- and 1% SDS-soluble fractions of the cells were analyzed. Prolyl 4-hydroxylase activity was assayed by a method based on the decarboxylation of 2-oxo[1-^14C^−]glutarate (Kivirikko et al., Methods in Enzymology 82: 245-304 (1982)). The Km values were determined by varying the concentrations of one substrate in the presence of fixed concentration of the second, while the concentrations of the other substrates were held constant (Myllyla et al., Eur. J. Biochem. 80: 349-357 (1977)). Protein disulfide-isomerase activity of the β subunit was measured by glutathione: insulin transhydrogenase assay (Carmichael et al., J. Biol. Chem. 252: 7163-7167 (1977)). Western blot analysis was performed using a monoclonal antibody, 5B5, to the β subunit of human prolyl 4-hydroxylase (Hoyhtya et al., Eur. J. Biochem. 141: 477-482 (1984)). Prolyl 4-hydroxylase was purified by a procedure consisting of poly (L-proline) affinity chromatography, DEAE-cellulose chromatography, and gel filtration (Kivirikko et al., Methods in Enzymology 144: 96-114 (1987)).
Table 2 presented data on the enzymic activity of the recombinant enzyme. The Km values were determined by varying the concentration of one substrate in the presence of fixed concentrations of the second while the concentration of the other substrates were held constant.

[4] = substrate 2-oxoglutarate, read-out: Km value, 2-oxoglutarate
[5] = substrate (Pro—Pro-Gly)10, read-out: Km value, (Pro—Pro-Gly)10
[6] = substrate Fe^+2, read-out: Km value, Fe^+2
[7] = substrate ascorbate, read-out: Km value, ascorbate

Molecule	Km (prolyl 4-hydroxylase; [4]) [µM]	Km (prolyl 4-hydroxylase; [5]) [µM]	Km (prolyl 4-hydroxylase; [6]) [µM]	Km (prolyl 4-hydroxylase; [7]) [µM]	other results
recombinant type II collagen: recombinant type II human collagen expressed from recombinant insect cells					Tm of the recombinant type II collagen [1]: up to 40 °C; trypsin and chymotrypsin digestion [1]: resistance to trypsin and chymotrypsin digestion
recombinant type III collagen: recombinant human type III collagen produced in insect cells, pepsin-converted from type III procollagen					Tm of the triple helices by CD spectra compared with authentic type III collagen ([2]; purified human type III collagen produced in insect cells): virtually identical; melting temperature determined by CD spectrum analysis ([2]; purified type III collagen from High Five cells): 40 °C; effect on the thermal stability ([3]; High Five cells, either ascorbate or prolyl 4-hydroxylase present without the other (FIG. 11B and 11C)): virtually no increasing effect; Tm of type III collagen ([3]; High Five cells, proα1 (III) chains expressed without prolyl 4-hydroxylase and ascorbate (FIG. 11A)): 32-34 °C; Tm of type III collagen ([3]; High Five cells, proα1 (III) chains produced in the presence of both prolyl 4-hydroxylase and ascorbate (FIG. 11D)): 38-40 °C
α582β2: recombinant human prolyl 4-hydroxylase tetramer from Sf9 cells infected with α58 virus and β virus	22	18	4	330	
α592β2: recombinant human prolyl 4-hydroxylase tetramer from Sf9 cells infected with α59 virus and β virus	25	18	4	330	
B1					Tm of the triple helices, lower than procollagen produced in the presence of recombinant prolyl 4-hydroxylase ([3]; insect cells, without recombinant prolyl 4-hydroxylase): about 6 °C
